Data as given in patent publication WO1994018227A2.

Molecular target: natural affinity purified heavy chain class I K d molecules
Assay: binding inhibition experiment with radiolabelled ligands

- affinity, fold lower than the human β2-microglobulin: 5 times lower
Substance: Recombinant murine β2-microglobulin
